Data published in the supplement of paper PMC9170038.

Tested on: MS2 coat protein
Assay: apparent KD of MS2 coat protein; designed switch direction (-1 OFF switch, 1 ON switch): -1; higher = weaker reporter binding
How it was run: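 Designed RNA switches with common flanks were made on Illumina chips by stalled E. coli RNA polymerase. Titration with SNAP-549-labelled MS2 coat protein doubled from 0.7 or 1.5 nM up to 3 µM. Apparent KD is each design's median over clusters after curve-fitting normalised fluorescence.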

[1] = Eterna round: R95, input ligand: FMN 200 uM
[2] = Eterna round: R95, input ligand: microRNA oligo, concentration not stated
[3] = Eterna round: R95, input ligand: none
[4] = input ligand: microRNA oligo, concentration not stated

AAAACACAUGAGGAUCACCCAUGUGAGGAUAUGUCCAUAUUCGGCAAAUCGGAUAUGGACAGAAGGCACAUAAA [JR_Exclusion1_Sub014] (puzzle: Exclusion 1)
apparent KD of MS2 coat protein [1]: 54.7 nM | apparent KD of MS2 coat protein [2]: 48.9 nM | apparent KD of MS2 coat protein [3]: 39.7 nM

UUGAUACAUACCUCCAUAAACAUGAGGAUCACCCAUGUAAGUGAGGAUAUAGAUUGAUUAGUAUACUAGAAGGCACUUAGAUAU [JR_ExcNG3_Sub044] (Eterna round: R96, puzzle: Exclusion NG 3)
apparent KD of MS2 coat protein (input ligand: FMN 200 uM): 11.6 nM | apparent KD of MS2 coat protein [4]: 8.91 nM | apparent KD of MS2 coat protein (input ligand: none): 13.3 nM

CCGCGUGAUUAGGAUAUCAAACUAGCGUGUACAUGAGAAGGGAUCACAUGAGGAUCACCCAUGUAAGGGAUCCU [Eternabot (L1) Solution 69] (Eterna round: R97, puzzle: Exclusion 6)
apparent KD of MS2 coat protein (input ligand: FMN 200 uM): 93.2 nM | apparent KD of MS2 coat protein (input ligand: none): 56.1 nM

AGAGUGCUGCGAGGAUAUACAUGAGGAUCACCCAUGUAAACCUGUGAGGCAAAGCCUCACAGGAUGUAGAAGGCGCAGUACUCA [Mat - Exclusion NG 2 - Mod of JL - D40] (Eterna round: R96, puzzle: Exclusion NG 2)
apparent KD of MS2 coat protein (input ligand: FMN 200 uM): 20 nM | apparent KD of MS2 coat protein [4]: 8.82 nM | apparent KD of MS2 coat protein (input ligand: none): 19.5 nM

GGUCAAGAACAGAUCCGCGCUGUCCUUGACCGCUCAUUUACAUGAGGAUCACCCAUGUUUUUUGCUUGUCUUGUUAC [Tixegeis] (puzzle: Sensor v3, turn-off variant 2)
apparent KD of MS2 coat protein [1]: 17.4 nM | apparent KD of MS2 coat protein [2]: 96.7 nM | apparent KD of MS2 coat protein [3]: 16.5 nM

CUGUUCCAUGUAGGAUAUGCAUAUUCUCAUUAUGCAGAAGGACAUGAGGAUCACCCAUGUAUGUUAUUAUCAUAUGUUACAUGU [Design 4] (Eterna round: R96, puzzle: Exclusion NG 1)
apparent KD of MS2 coat protein [4]: 27.2 nM

UUGCCACAUGAGGAUCACCCAUGUGAGGAUAUGGCCUGUUUGGAGUGUGCUGGUUCUGUCAGAAGGCGCGUGGG [salish99_ex1_r4_033] (Eterna round: R97, puzzle: Exclusion 1)
apparent KD of MS2 coat protein (input ligand: FMN 200 uM): 49.5 nM | apparent KD of MS2 coat protein (input ligand: none): 33.6 nM

GGAAGGUCAGGAUAUGCGAGGGAGUGGGAAAUAGGAUGGUAGCAGAAGGGACAUGAGGAUCACCCAUGUUAGGA [JR_Exclu4_Sub0101] (puzzle: Exclusion 4)
apparent KD of MS2 coat protein [2]: 28 nM

GAUCCUUAAGUCAGGAUAUCAAGCAAACUCAAAAUUGAGAAGGGACAUGAGGAUCACCCAUGUCACCGAAAUAA [Reteisus] (puzzle: Brourd's mod of Exclusion 4)
apparent KD of MS2 coat protein [1]: 10.1 nM | apparent KD of MS2 coat protein [2]: 8.98 nM | apparent KD of MS2 coat protein [3]: 10.6 nM

CAUAAGUGAGGAUAUCCUGGCCCUAUGCGUUAGGCGCGCUAGGAGAAGGCACAUGAGGAUCACCCAUGUCUCUC [Eternabot (L1) Solution 21] (Eterna round: R97, puzzle: Exclusion 4)
apparent KD of MS2 coat protein (input ligand: FMN 200 uM): 76.6 nM | apparent KD of MS2 coat protein (input ligand: none): 29.7 nM

GUCUAGCGAGGAUAUUGCAGACGAAACAUGAGGAUCACCCAUGUGGCCUUGUGCCGUGUGCAAGAAGGCGCGAGGC [Gelelaor] (Eterna round: R97, puzzle: Exclusion 5)
apparent KD of MS2 coat protein (input ligand: FMN 200 uM): 297 nM | apparent KD of MS2 coat protein (input ligand: none): 268 nM

GGAAAUCAUGUAGGAUAUGCGUGGCGAAGCUAUGCAGAAGGACAUGAGGAUCACCCAUGUGCUUCCGUCUGCGUACAGACGGAA [Mat - Exclusion NG 1 - Mod of JL - D20] (Eterna round: R96, puzzle: Exclusion NG 1)
apparent KD of MS2 coat protein (input ligand: FMN 200 uM): 32.3 nM | apparent KD of MS2 coat protein [4]: 77.9 nM | apparent KD of MS2 coat protein (input ligand: none): 186 nM

GUCAGCUCGUGAGGAUAUGAACAUGAGGAUCACCCAUGUAAGAUCAAGCUGCUUCGGCAGCAAGUUCAGAAGGCACGAGCUGAC [ENG2/10-A1] (Eterna round: R96, puzzle: Exclusion NG 2)
apparent KD of MS2 coat protein (input ligand: FMN 200 uM): 221 nM | apparent KD of MS2 coat protein [4]: 85.8 nM | apparent KD of MS2 coat protein (input ligand: none): 134 nM

AAAAUGGUCUAGGAUAUGACAAAUCUGAGCACGUCAGAAGGAGACACAUGAGGAUCACCCAUGUGGGUGCGAAA [Erteedza] (Eterna round: R96, puzzle: Exclusion 6)
apparent KD of MS2 coat protein [4]: 29.3 nM

CGCUGGACAGGAUAUGUUCUUGAGCACUUGAGGAUCACCCAAGUCAUCAAGAACUCAGGCACAGAAGGGUUUAUGG [salish99_ex5_r4_016] (Eterna round: R97, puzzle: Exclusion 5)
apparent KD of MS2 coat protein (input ligand: FMN 200 uM): 24.6 nM | apparent KD of MS2 coat protein (input ligand: none): 13.4 nM

CUUAGUUGGUAAGGAUAUCCUACAUUGUUCUGGCCCGGGCAUGCUACAUGAGGAUCACCCAUGUGGGAGAAGGUGCGUCAUCGC [Design 18] (Eterna round: R96, puzzle: Exclusion NG 2)
apparent KD of MS2 coat protein (input ligand: FMN 200 uM): 57.4 nM | apparent KD of MS2 coat protein [4]: 45.1 nM | apparent KD of MS2 coat protein (input ligand: none): 53.6 nM

UUUUAACAUGAGGAUCACCCAUGUGAGGAUAUCGAAAUUUAUAUUAAUAUUAAUAAAACGAGAAGGCACAUUUU [JMF 4] (puzzle: Exclusion 1)
apparent KD of MS2 coat protein [2]: 75.1 nM

CCUUAGCGAGGAUAUACAUGAGGAUCACCCAUGUGAUCCUAAGGCUGAUCAAGCCUAUGUAGAAGGCGCAAAUC [salish99_ex3_r4_003] (Eterna round: R97, puzzle: Exclusion 3)
apparent KD of MS2 coat protein (input ligand: FMN 200 uM): 180 nM | apparent KD of MS2 coat protein (input ligand: none): 442 nM

GAUAAGGUAGGAUAUACGAAGAAAGAGGGUAGUAAUAAUACACAUGAGGAUCACCCAUGUAGAAGGACCAAGAG [Mat - Exclusion 2 - Mod of my Tesla design - D44] (puzzle: Exclusion 2)
apparent KD of MS2 coat protein [1]: 38.7 nM | apparent KD of MS2 coat protein [2]: 23 nM | apparent KD of MS2 coat protein [3]: 22.1 nM

CUUUUGUGAGGAUAUCAGUGGUAAUACAAUAGUAUUACUACUGAGAAGGCACAUGAGGAUCACCCAUGUUCCUC [Ex4 344 Omei mod 11] (puzzle: Exclusion 4)
apparent KD of MS2 coat protein [2]: 43.1 nM

AUUAAAGACCGAGGAUAUCGAGGAAAUACCCUGCGAGAAGGCGGGUACUCGGACGAUUCGACAUGAGGAUCACCCAUGUGCACA [Atrivece] (Eterna round: R96, puzzle: Exclusion NG 1)
apparent KD of MS2 coat protein (input ligand: FMN 200 uM): 26.6 nM | apparent KD of MS2 coat protein [4]: 24.5 nM | apparent KD of MS2 coat protein (input ligand: none): 25.9 nM

AGUACUAACACGAGAGUGUUAGUACAAUAAGCUUGUGUUACAUGAGGAUCACCCAUGUCCUCAUAAGCUCGUCUUAU [Mat - Sensor v3 - Turn-off var 2 - D53] (puzzle: Sensor v3, turn-off variant 2)
apparent KD of MS2 coat protein [1]: 133 nM | apparent KD of MS2 coat protein [2]: 246 nM | apparent KD of MS2 coat protein [3]: 115 nM

AUUCAGCGAGGAUAUACAGGUUCUGGGUGAGGCUCGGCGAGACAUGAGGAUCACCCAUGUAGAAGGUGCUAGCC [Rezalaes] (puzzle: Exclusion 2)
apparent KD of MS2 coat protein [2]: 277 nM

AAACAGGGAGGAUAUACAUAGAUCCUCUAACCUAAUAGGUCACAUGAGGAUCACCCAUGUAGAAGGCCCUUAGG [Biinbebi] (puzzle: Exclusion 2)
apparent KD of MS2 coat protein [2]: 14.3 nM
